Results from article PMC2822742.

Molecular target: RBPJκ in Raji cell extract (human (endogenous in Raji)) (UniProt Q06330)
Assay: native gel or EMSA

Sequence of UniProt Q06330 (Q06330 whole entry): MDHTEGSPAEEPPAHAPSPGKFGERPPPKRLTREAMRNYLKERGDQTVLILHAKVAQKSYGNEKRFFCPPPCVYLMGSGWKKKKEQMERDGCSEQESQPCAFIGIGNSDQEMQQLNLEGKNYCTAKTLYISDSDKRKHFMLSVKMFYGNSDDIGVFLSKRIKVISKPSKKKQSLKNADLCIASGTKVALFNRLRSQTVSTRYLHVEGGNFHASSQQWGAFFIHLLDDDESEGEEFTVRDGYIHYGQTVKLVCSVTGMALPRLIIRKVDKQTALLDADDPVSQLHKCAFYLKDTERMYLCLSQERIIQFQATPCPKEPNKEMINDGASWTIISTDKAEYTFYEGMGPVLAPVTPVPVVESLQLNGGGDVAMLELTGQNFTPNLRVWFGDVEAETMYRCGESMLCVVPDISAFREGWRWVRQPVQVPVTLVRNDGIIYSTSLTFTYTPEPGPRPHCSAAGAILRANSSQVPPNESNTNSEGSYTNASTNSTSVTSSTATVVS

Substance: EBNA2 in Raji cell extract (from UniProt P12978 1-487) (natural protein)
- decrease in EMSA signal intensity, AdOx-treated against untreated extract: 30 to 67%
